Consider 4 molecules from patent publication EP4741420A1, “PHARMACEUTICAL COMPOSITION FOR PREVENTING OR TREATING OBESITY COMPRISING GLP ANALOGUE AS ACTIVE INGREDIENT” (priority 2023, dated 2025).

Ends that are not written are not given here. * marks the point of attachment. Palmitoyl = CCCCCCCCCCCCCCCC(=O)*

Series [1] concerns C57BL/6 DIO mice. Kind of series: Diet-induced obesity mouse model: body weight and food intake (Example 3). In kind it is in vivo. The following applies: 4 weeks administration, 0.20 mg/kg/dose.
Series [2] deals with C57BL/6 DIO mice. Kind of series: Diet-induced obesity mouse model: blood/serum biochemical tests (Example 3). In kind it is in vivo. The note with it: after 4 weeks, 0.20 mg/kg/dose (dose from Table 3). The procedure:
Here, the body weight and food intake were measured daily.
In addition, after the experiment was completed, blood and serum samples were obtained from each mouse model, and biochemical tests were performed for blood glucose, total cholesterol, high-density lipoprotein (HDL), low-density lipoprotein (LDL), and triglycerides.

The target of another series is T1, GLP-2 (Homo sapiens, UniProt O95838).
T1 sequence (O95838 1-553): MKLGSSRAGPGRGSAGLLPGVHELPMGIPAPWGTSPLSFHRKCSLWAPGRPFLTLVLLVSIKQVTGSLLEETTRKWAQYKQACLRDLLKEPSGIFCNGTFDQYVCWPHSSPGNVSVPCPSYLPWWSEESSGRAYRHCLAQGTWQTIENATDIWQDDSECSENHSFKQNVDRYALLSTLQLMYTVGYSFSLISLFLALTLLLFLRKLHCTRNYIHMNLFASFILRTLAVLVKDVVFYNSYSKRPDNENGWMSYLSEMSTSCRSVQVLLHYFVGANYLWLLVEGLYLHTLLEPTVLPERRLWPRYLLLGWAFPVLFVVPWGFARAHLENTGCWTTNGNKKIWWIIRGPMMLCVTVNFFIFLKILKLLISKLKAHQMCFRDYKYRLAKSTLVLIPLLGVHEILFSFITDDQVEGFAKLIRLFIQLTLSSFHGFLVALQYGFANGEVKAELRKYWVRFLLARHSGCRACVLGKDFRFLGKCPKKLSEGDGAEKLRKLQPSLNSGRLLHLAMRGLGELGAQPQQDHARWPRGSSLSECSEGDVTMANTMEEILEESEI
Kind of series: GLP-2 activity, cell-based cAMP assay (same method as Example 2). A general note: Changes in cAMP serve as a functional read-out for many G protein-coupled receptors.

The nature of series [3]: Mouse PK after single subcutaneous administration, LC-MS/MS of plasma. The note with it: C57BL/6N male mice, single subcutaneous dose 0.2 mg/5 mL/kg, plasma. In kind it is in vivo, mice. How it is done: Each of the experimental groups and the control was subcutaneously administered once to the dorsal area of a total of 12 mice using a 1 mL syringe equipped with a 26-gauge needle at a dose of 0.2 mg/5 mL/kg. After drug administration, approximately 0.04 to 0.05 mL of blood was collected per individual at the time scheduled for the orbital vein (4 mice were alternately sampled), and the blood collection times were 1, 2, 4, 8, 24 ,32 ,48, 56, 72, 96, and 120 hours. All plasma samples were analyzed using a self-developed LC-MS/MS assay. Pharmacokinetic analysis of blood drugs was performed using non-compartmental analysis, and analysis of pharmacokinetic parameters was performed using Phoenix WinNolin 64 (Version. 8.3.5 340).

Series [4] has as its target T2, GLP-1R (on GLP-1R/CHO cells, DiscoverX 95-0062C2) (UniProt P43220 24-463). As to the kind of experiment: cell-based or functional assay.
The target in series [5] is T2, GLP-1R (on GLP-1R/CHO cells, DiscoverX …). As to the kind of experiment: cell-based or functional assay. The source holds these as a separate data set.

T2 sequence (P43220 24-463 limits assumed): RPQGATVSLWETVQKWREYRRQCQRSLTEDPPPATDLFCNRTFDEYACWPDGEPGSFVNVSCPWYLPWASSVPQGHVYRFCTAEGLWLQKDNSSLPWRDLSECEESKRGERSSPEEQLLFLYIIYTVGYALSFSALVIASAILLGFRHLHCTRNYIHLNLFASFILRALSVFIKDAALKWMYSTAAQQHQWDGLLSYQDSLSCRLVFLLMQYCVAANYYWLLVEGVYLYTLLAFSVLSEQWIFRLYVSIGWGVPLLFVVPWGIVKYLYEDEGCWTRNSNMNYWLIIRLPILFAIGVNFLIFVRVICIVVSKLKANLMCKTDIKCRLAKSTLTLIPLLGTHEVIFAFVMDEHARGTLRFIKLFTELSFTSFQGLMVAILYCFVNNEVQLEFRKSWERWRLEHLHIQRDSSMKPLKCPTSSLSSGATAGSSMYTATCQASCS

Consider `CCCCCCCCCCCCCCCC(=O)N[C@@H](CCC(=O)NCCCC[C@H](NC(=O)[C@H](C)NC(=O)[C@H](C)NC(=O)[C@H](CCC(N)=O)NC(=O)CNC(=O)[C@H](CCC(=O)O)NC(=O)[C@H](CC(C)C)NC(=O)[C@H](Cc1ccc(O)cc1)NC(=O)[C@H](CO)NC(=O)[C@H](CO)NC(=O)[C@@H](NC(=O)[C@H](CC(=O)O)NC(=O)[C@H](CO)NC(=O)[C@@H](NC(=O)[C@H](Cc1ccccc1)NC(=O)[C@@H](NC(=O)CNC(=O)[C@H](CCC(=O)O)NC(=O)[C@H](C)NC(=O)[C@@H](N)Cc1c[nH]cn1)[C@@H](C)O)[C@@H](C)O)C(C)C)C(=O)N[C@@H](CCC(=O)O)C(=O)N[C@@H](Cc1ccccc1)C(=O)N[C@H](C(=O)N[C@@H](C)C(=O)N[C@@H](Cc1c[nH]c2ccccc12)C(=O)N[C@@H](CC(C)C)C(=O)N[C@H](C(=O)N[C@@H](CCCNC(=N)N)C(=O)NCC(=O)N[C@@H](CCCNC(=N)N)C(=O)NCC(=O)O)C(C)C)[C@@H](C)CC)C(=O)O` [Liraglutide, reference compound], for which, in the series on C57BL/6 DIO mice [1], the “Cumulative food intake” value is 58.5 ± 2.5 g and the “Weight” value was found to be 40.1 ± 4.9 g. Moreover, in the series with C57BL/6 DIO mice [2], the “Blood glucose” value is 209.2 ± 26.7 mg/dL, the “High-density lipoprotein” value stood at 74.7 ± 2.6 mg/dL, the “Low-density lipoprotein” value came out at 9.7 ± 3.3 mg/dL and the “Triglyceride” value stood at 9.6 ± 0.8 mg/dL.

For “HGEGTFTSDLSTYLDALAAC(+mPEG)DFINWLIQTKITDKK(+C16 FA) (HGEGTFTSDLSTYLDALAAC(mPEG 3.4 kDa)DFINWLIQTKITDKK(C16 fatty acid)) [HU020M6, 3.4kDa maleimidated PEG conjugated to cysteine at position 20, C16 fatty acid]”, in the series with GLP-2 (Example 5, relative to GLP-2), the “GLP-2 activity Compared to GLP-2” value is on record as ~ 0.02%. In addition, the EC50 with GLP-2 (read-out: GLP-2 activity (EC50), Example 5) was greater than 10000 nM. In series [3], the AUClast is 6508.0 ng·h/mL, the peak concentration (Cmax) came to 433.6 ng/mL, the T1/2 is listed as 7.0 h and the Tmax is 8.0 h.

B1: HU020K2FA (peptide)
peptide: HGEGTFTSDLSTYLDALAARDFINWLIQTKITDKK(Palmitoyl)
B1: in series [4], the “EC50, cAMP increase in GLP-1R/CHO cells, average (n=4)” value amounted to 0.0151 nM and the “Relative to GLP-1 (Exendin-4) %, cAMP in GLP-1R/CHO cells, average (n=4)” value stood at 63.4%. Moreover, in series [5], the “GLP-1 activity (EC50, pM)” value turned out to be 30.1 pM and the “GLP-1 activity, Compared to GLP-1 (Exendin-4)” value turned out to be 23.6%.

B2: HU020 (peptide)
peptide: HGEGTFTSDLSTYLDALAARDFINWLIQTKITD
Regarding B2, in series [4], the “EC50, cAMP increase in GLP-1R/CHO cells, average (n=4)” value worked out at 0.0048 nM and the “Relative to GLP-1 (Exendin-4) %, cAMP in GLP-1R/CHO cells, average (n=4)” value is 199%. In series [5], the “GLP-1 activity (EC50, pM)” value stood at 4.15 pM and the “GLP-1 activity, Compared to GLP-1 (Exendin-4)” value stood at 171%.

What is called EC50 is the concentration that produces a half-maximal response. One may read the Cmax as the maximum level reached in the sampled fluid or tissue. The Tmax is the time at which the peak concentration occurs.
